# Experimental data published in article PMC11147762.
# B1: R-loop (mixed)
# DNA 1: GCCAGGGACGAGGTGAACCTGCAGGTGGGCGGCTACTACTTAGATGTCATCCGAGGCTTATTGGTAGAATTCGGCAGCGTCATGCGACGGC
# DNA 2: GCCGTCGCATGACGCTGCCGAATTCTACCACGCGATTCATACCTGTCGTGCCAGCTGCTTTGCCCACCTGCAGGTTCACCTCGTCCCTGGC
# RNA: GCAGCUGGCACGACAGGUAUGAAUC
# B2: D-loop (structured_DNA)
# DNA 1: B1 DNA 1
# DNA 2: B1 DNA 2
# DNA 3: GCAGCTGGCACGACAGGTATGAATC
# B3: m6A R-loop (mixed)
# DNA 1: B1 DNA 1
# DNA 2: B1 DNA 2
# RNA: GCAGCUGGCACGACAGGUAUGAAUC
# modifications: m6A in RNA strand; positions not visible in material
# Columns and labels:
# DDX41-ΔHel-WT (DDX41 D3) [1] = target: T1, DDX41-ΔHel-WT (DDX41 D3) (Homo sapiens, UniProt Q9UJV9 1-406+568-622, internal_change); assay: EMSA; EMSA, 0-1300 nM protein with 10 nM nucleic acid; buffer, salt, pH and temperature not in material; conditions: protein: recombinant, label: 5'-Cy5 on oligo1
# T1 sequence (Q9UJV9 other isoform, or with tags, fused parts or gaps | mutant): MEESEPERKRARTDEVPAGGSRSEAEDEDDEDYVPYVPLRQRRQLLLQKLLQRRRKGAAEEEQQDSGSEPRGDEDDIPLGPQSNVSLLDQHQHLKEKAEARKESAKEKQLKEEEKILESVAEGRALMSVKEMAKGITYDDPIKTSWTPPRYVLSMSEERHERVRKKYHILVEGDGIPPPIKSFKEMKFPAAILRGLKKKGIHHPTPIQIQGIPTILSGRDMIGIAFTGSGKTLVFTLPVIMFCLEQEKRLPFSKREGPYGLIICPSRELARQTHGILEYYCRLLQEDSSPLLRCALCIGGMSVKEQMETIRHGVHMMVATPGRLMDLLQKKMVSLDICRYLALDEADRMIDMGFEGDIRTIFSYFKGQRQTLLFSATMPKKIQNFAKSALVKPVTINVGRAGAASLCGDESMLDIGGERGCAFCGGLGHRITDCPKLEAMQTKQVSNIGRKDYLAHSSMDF
# DDX41-ΔHel-Y259C = DDX41-ΔHel-Y259C (Homo sapiens, UniProt Q9UJV9 1-406+568-622, Y259C;internal_change); assay: as above; conditions: protein: recombinant; label: 5'-Cy5 on oligo1; 5'-Cy3 on RNA; bubble of oligo1/oligo2 with 25-nt RNA paired to oligo2
# Chain of DDX41-ΔHel-Y259C (Q9UJV9 other isoform, or with tags, fused parts or gaps Y259C/| Y259C Y259C): as the sequence (Q9UJV9 other isoform, or with tags, fused parts or gaps | mutant) above, with Y259C counted along it
# DDX41-R525H = DDX41-R525H (Homo sapiens, UniProt Q9UJV9 1-622, R525H); assay: as above; conditions: protein: recombinant; label: 5'-Cy5 on oligo1; 5'-Cy3 on RNA; bubble of oligo1/oligo2 with 25-nt RNA paired to oligo2
# Chain of DDX41-R525H (Q9UJV9 whole entry R525H): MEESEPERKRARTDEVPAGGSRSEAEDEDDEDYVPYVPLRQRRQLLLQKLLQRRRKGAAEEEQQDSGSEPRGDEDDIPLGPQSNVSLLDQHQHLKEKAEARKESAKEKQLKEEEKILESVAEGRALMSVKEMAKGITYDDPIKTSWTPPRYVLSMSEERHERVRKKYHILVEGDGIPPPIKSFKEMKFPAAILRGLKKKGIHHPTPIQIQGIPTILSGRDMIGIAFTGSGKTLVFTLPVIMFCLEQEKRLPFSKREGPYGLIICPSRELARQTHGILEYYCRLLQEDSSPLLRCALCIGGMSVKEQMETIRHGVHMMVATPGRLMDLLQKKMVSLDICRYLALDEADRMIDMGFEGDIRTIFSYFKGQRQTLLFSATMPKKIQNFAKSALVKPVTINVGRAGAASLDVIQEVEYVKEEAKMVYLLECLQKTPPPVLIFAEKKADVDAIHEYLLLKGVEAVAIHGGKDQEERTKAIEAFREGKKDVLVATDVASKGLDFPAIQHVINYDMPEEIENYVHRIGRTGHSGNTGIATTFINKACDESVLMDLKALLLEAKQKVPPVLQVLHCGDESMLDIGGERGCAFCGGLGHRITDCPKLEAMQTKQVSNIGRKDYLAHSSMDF
# DDX41-ΔHel-WT (DDX41 D3) [2] = target: T1, DDX41-ΔHel-WT (DDX41 D3); assay: EMSA; m6A had no effect on affinity; EMSA, 0-1300 nM protein with 10 nM nucleic acid; buffer, salt, pH and temperature not in material; conditions: protein: recombinant; label: 5'-Cy5 on oligo1; 5'-Cy3 on RNA; bubble of oligo1/oligo2 with 25-nt RNA paired to oligo2
binder,measurement,setting,value
B1,binding result,"DDX41-ΔHel-WT (DDX41 D3) [1]; 5'-Cy3 on RNA, bubble of oligo1/oligo2 with 25-nt RNA paired to oligo2",binds
same,binding result,DDX41-ΔHel-Y259C,binds
same,binding result,DDX41-R525H,binds
B2,binding result,DDX41-ΔHel-WT (DDX41 D3) [1]; bubble with 25-nt DNA paired to oligo2,binds
B3,binding result,DDX41-ΔHel-WT (DDX41 D3) [2],binds
